Source: US20100233154A1, “TARGETED BINDING AGENTS DIRECTED TO HEPARANASE AND USES THEREOF 463” (MedImmune Limited, priority 2008, published 2010)

B1: 7B9.1: human anti-heparanase monoclonal antibody, G4λ; VH SEQ ID NO 22, VL SEQ ID NO 24 (antibody, listed as Homo Sapiens, V domains shown)
VH: QVQLVESGGGVVQPGRSLRLSCAASGFTFSSYGMHWVRQAPGKGLEWVAVIWYDGSNKYYADSVKGRFTISRDNSKNTLYLQMNSLRAEDTAVYYCAREGAPYSSSDAFDIWGQGTMVTVSS
VL: QSVLTQPPSVSGAPGQRVTISCTGSSSNIGANYDVHWYQQLPGTAPKLLIYGDNNRPSGVPDRFSGSKSGTSASLAITGLQAEDEADYYCQSYDSSLSGSVFGGGTKLTVL
B2: 15A1.2: fully human anti-heparanase monoclonal antibody, G2κ; VH SEQ ID NO 6, VL SEQ ID NO 8; ATCC PTA-9491 (antibody, listed as Homo Sapiens, V domains shown)
VH: QVQLVQSGAEVKKPGASVKVSCKVSGYTLTELSMHWVRQAPGKGLEWMGGFDPEDGETIFAQKFQGRVTMTEDTSTDTAYMELSSLRSEDTAVYYCATGLRFLEWFLWGWDVWGQGTTVTVSS
VL: DIQMTQSPSSVSASVGDRVTITCRASQGISNWLAWYQQTPGKAPQLLIYGASSLQSGVPSRFSGSGSGTDFTLTISSLQPEDFATYYCQQADSFPPTFGQGTKVEIK
notes: fully human anti-heparanase monoclonal antibody, G2κ; ATCC PTA-9491
B3: 16G1.1: human anti-heparanase monoclonal antibody, G4κ; VH SEQ ID NO 14, VL SEQ ID NO 16 (antibody, listed as Homo Sapiens, V domains shown)
VH: QVQLVESGGGVVQPGRSLRLSCAASGFTFSSYGMHWVRQAPGKGLEWVAVIWYDGSNKYYADSVKGRFTISRDNSKNTLNLQMNSLRAEDTAVYYCGRDPGTYHYYYHGMDVWGQGTTVTVSS
VL: YIVMTQSPLSLPVTPGEPASISCRSSQSLLHSNGYNFLDWYLQKPGQSPQLLIYLGSNRASGVPDRFSGSGSGTDFTLKINRVEAEDVGVYYCMQALQTPITFGQGTRLEIK
B4: 14H12.3: human anti-heparanase monoclonal antibody, G2λ; VH SEQ ID NO 26, VL SEQ ID NO 28 (antibody, listed as Homo Sapiens, V domains shown)
VH: QVQLVESGGGVVQPGRSLRLSCAASGFTFSSYGMHWVRQAPGKGLEWVAVIWYDGSNKDYADSVKGRFTISRDNSKNTLYLQMNSLRAEDTAVYYCAREGSTSWTDYYGMDVWGQGTTVTVSS
VL: SYELTQPPSVSVSPGQTARITCSGDALPKRYAYWYQQKSGQALVLVIYEDSKRPSGIPERFSGSSSGTMATLTISGAQVEDEADYYCYSIDSSGNHGVFGGGTKLTVL

Columns and labels:
cynomolgus heparanase = test: Cross species capture ELISA, cynomolgus heparanase; assay type: binding; conditions: min 0.06, max 1.5 OD units
Method: (§1) Initially, cross species binding to human, murine and cynomolgus heparanase was determined in an ELISA assay in which heparanase was captured onto plates using a rabbit anti-heparanase antibody (Raybiotech, Cat. IP-14-155). Exhaustive supernatants were added to the plates at a final dilution of 1:5 and bound antibody detected with a rabbit anti-human IgG Fc.

human heparanase = molecular target: T1, human heparanase (Homo sapiens, UniProt Q9Y251); test: Cross species capture ELISA, human heparanase; assay type: binding
T1 sequence (Q9Y251 36-543): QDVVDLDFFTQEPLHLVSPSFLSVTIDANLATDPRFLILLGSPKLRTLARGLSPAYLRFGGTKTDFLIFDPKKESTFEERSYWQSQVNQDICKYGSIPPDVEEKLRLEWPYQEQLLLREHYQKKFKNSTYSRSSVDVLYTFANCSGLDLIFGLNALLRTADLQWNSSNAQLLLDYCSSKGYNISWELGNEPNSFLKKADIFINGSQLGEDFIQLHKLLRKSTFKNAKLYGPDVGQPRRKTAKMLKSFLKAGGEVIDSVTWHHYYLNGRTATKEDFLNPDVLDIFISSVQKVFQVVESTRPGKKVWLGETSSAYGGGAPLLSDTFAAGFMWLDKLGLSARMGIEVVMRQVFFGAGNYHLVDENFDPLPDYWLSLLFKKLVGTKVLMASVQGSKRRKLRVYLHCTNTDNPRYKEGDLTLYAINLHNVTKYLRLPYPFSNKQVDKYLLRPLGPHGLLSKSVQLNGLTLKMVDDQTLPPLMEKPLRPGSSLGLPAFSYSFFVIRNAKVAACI
Method: as §1

[1] = molecular target: T2, recombinant human heparanase (Homo sapiens, UniProt Q9Y251); test: ELISA binding to directly coated recombinant human heparanase
T2 construct: Heparanase 8 and 50 kDa sub-units were cloned into pacGP67 as Sma 1-EcoR1 fragments; made in house; host or cells: Hi5 insect cells, baculovirus (pFastBac Dual)
T2 sequence (Q9Y251 158-543 limits assumed): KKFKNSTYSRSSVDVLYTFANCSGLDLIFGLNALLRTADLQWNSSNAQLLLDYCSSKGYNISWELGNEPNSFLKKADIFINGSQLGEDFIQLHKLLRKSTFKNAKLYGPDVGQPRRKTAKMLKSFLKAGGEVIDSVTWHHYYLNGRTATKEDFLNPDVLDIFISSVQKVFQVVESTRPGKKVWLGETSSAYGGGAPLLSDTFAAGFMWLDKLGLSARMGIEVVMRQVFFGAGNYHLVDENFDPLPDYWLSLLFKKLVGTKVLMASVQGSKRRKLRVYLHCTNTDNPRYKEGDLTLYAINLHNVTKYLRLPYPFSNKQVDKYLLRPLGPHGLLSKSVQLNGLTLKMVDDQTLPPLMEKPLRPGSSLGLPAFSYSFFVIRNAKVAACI
T2 sequence (Q9Y251 36-109 limits assumed): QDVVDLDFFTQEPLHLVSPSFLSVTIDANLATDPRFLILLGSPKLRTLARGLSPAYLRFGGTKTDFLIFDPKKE
Method: (§2) Titres of antibodies from Campaigns 1 and 2 were determined in an ELISA. Costar 3368 medium binding plates were coated directly with recombinant human heparanase or plates were coated with Rabbit anti-heparanase antibody (Raybiotech, Cat. IP-14-155) to capture recombinant heparanase. Directly coated heparanase was detected in three separate plates by mouse (InSight Cat. INS-26-1-0000), goat (Santa Cruz, Cat. sc26136) or rabbit (Raybiotech, Cat. IP-14-155) anti-heparanase antibodies, and quantified using appropriate secondary antibodies. Antibody captured heparanase was detected using mouse anti-heparanase (Insight Cat. INS-26-1-0000). At the end of the immunisation program, fusions were performed using mouse myeloma cells and lymphocytes isolated from the spleens and lymph nodes of the immunised mice by means of electroporation, as described in Example 2.
(§3) Initial screening to detect antibodies binding to human heparanase in both direct coating and antibody capture ELISAs as described above identified 800 hybridomas for further testing; 535 IgG2 from Campaign 1 and 2 and 265 IgG4 from Campaign 2. Enzyme inhibition assays and cross species binding to cynomolgus and murine heparanase, in an antibody capture ELISA, identifed 12 antibodies that were taken forward for sub-cloning to provide purified antibodies for further analysis. Subsequently, confirmation of activity against human heparanase (FIGS. 3 and 4) and inhibition of recombinant cynomolgus and murine heparanase activity in the HS-cryptate degradation assay (FIG. 5a-c), together with sequence analysis, identified 8 antibodies that are described in the table below.

murine heparanase = molecular target: T3, murine heparanase (Mus musculus, UniProt Q6YGZ1); test: Cross species capture ELISA, murine heparanase; assay type: binding; conditions: min 0.06, max 0.9 OD units
T3 construct: made in house; host or cells: Hek293 cells (conditioned medium), inferred for the ELISA
T3 sequence (Q6YGZ1 28-535): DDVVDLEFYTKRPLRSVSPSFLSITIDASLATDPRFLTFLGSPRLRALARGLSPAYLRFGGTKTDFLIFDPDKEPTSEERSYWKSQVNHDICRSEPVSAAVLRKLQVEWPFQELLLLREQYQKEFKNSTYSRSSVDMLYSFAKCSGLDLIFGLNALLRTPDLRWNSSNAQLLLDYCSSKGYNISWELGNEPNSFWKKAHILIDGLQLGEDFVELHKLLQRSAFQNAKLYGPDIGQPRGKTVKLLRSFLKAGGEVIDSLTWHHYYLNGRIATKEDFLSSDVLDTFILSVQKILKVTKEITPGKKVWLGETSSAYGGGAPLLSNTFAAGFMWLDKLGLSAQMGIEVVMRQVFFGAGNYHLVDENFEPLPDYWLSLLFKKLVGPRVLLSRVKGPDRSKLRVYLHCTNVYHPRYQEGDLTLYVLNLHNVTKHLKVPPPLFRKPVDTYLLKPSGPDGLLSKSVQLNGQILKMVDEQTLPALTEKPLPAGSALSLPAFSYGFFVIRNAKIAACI
Method: as §1

[2] = molecular target: T4, recombinant heparanase captured with rabbit anti-heparanase antibody (Homo sapiens, UniProt Q9Y251); test: ELISA binding to antibody-captured heparanase; conditions: antibody capture
T4 construct: Heparanase 8 and 50 kDa sub-units were cloned into pacGP67 as Sma 1-EcoR1 fragments; made in house; host or cells: Hi5 insect cells, baculovirus (pFastBac Dual)
T4 sequence (Q9Y251 158-543 limits assumed): T2 sequence (Q9Y251 158-543 limits assumed)
T4 sequence (Q9Y251 36-109 limits assumed): T2 sequence (Q9Y251 36-109 limits assumed)
Method: as §2, §3

MCF7-Hpa1#19 xenograft = test: Subcutaneous xenograft tumour growth, MCF7-Hpa1#19; assay type: in vivo, SCID mice; conditions: once weekly i.p.; 10E9.1 at 7.5 or 15 mg per kg
Method: (§4) MCF7-Hpa1#19 and HCT116 tumour cells were harvested from sub-confluent cultures. A total of 5×10^6 (MCF7-Hpa1#19) or 10^7 (HCT116) tumour cells were inoculated subcutaneously into the flank of male SCID mice. HCT116 tumour cells were implanted in PBS; […] cells were implanted in PBS containing 50% matrigel.
(§5) When tumours had attained ˜200 mm^3, tumour bearing mice were randomised into treatment groups and dosed with the following; PBS; an isotype matched control IgG2 antibody, 15 mg per kg; anti-heparanase antibody 10E9.1, 7.5 or 15 mg per kg. All treatments were administered once weekly i.p. Tumour growth was measured twice per week using calipers and tumour volumes calculated according to an ellipsoid volume is formula (3.142/6×length×width×width) from measures of the largest tumour diameter and two opposing widths (FIG. 11).

HCT116 xenograft = test: Subcutaneous xenograft tumour growth, HCT116; assay type: in vivo, SCID mice; conditions: once weekly i.p.; 10E9.1 at 15 mg per kg
Method: as §4, §5

MDA MB231-Hpa1#4 cells = test: Heparanase expression in cells cultured with antibody (Western blot); assay type: cell-based, human; conditions: 25 μg per ml antibody, 72 hrs, compared to untreated or IgG2 control
Method: MDA MB231-Hpa1#4 cells were cultured in the presence of 25 μg per ml anti-human heparanase antibody or control IgG2 antibody (Sigma Cat. No. 1504-1MG) for 72 hrs. Following the removal of culture medium, protein extracts were prepared from the cells in 100 μl RIPA buffer and separated on […] gels and transferred to nitrocellulose as described above. Western blots were probed with an anti-heparanase antibody that detected only pro-heparanase (SantaCruz Cat. No. SC25825).

Recombinant Hpa1 = molecular target: T5, Recombinant Hpa1 (Homo sapiens, UniProt Q9Y251); test: Medium resolution Biacore affinity; assay type: binding
T5 construct: Heparanase 8 and 50 kDa sub-units were cloned into pacGP67 as Sma 1-EcoR1 fragments; made in house; host or cells: Hi5 insect cells, baculovirus (pFastBac Dual)
T5 sequence (Q9Y251 158-543 limits assumed): T2 sequence (Q9Y251 158-543 limits assumed)
T5 sequence (Q9Y251 36-109 limits assumed): T2 sequence (Q9Y251 36-109 limits assumed)
Method: For medium resolution Biacore™ tests, cloned and purified antibodies were used. Each of three purified antibodies (10E9.1, 15A1.2, and 15A11.1) were captured onto a high-density goat anti-human antibody surface over a CM4 Biacore™ chip. Recombinant Hpa1 was diluted to the desired concentration (1 nM and 10 nM) in 10 mM HEPES, 150 mM NaCl, 0.005% tween-20, 0.1 mg per ml BSA pH7.4 (25° C.) immediately prior to injection. Data were fit globally to a 1:1 interaction model with a term for mass transport included. The resulting KD values are summarised below in Table 4.

[3] = purified antibody captured on CM4 chip, Hpa1 1 nM and 10 nM, 25° C.

Row | Molecule | Binding to heparanase Cyno (cynomolgus heparanase) | Binding to heparanase Human (human heparanase) | Binding to direct coated heparanase [1] | Binding to heparanase Mouse (murine heparanase) | Binding to captured heparanase [2] | Tumour growth inhibition (MCF7-Hpa1#19 xenograft) | Tumour growth inhibition (HCT116 xenograft) | Inhibition of heparanase expression (MDA MB231-Hpa1#4 cells) | Kd (Recombinant Hpa1; 1:1 interaction model with mass transport term) | ka (Recombinant Hpa1; [3]) | kd (Recombinant Hpa1; [3])
1 | B1 | 1.06 OD units | 0.68 OD units | 3.78 OD units | 0.58 OD units | 6.0 OD units | – | – | – | – | – | –
2 | B2 | 0.11 OD units | 0.19 OD units | 0.08 OD units | 0.14 OD units | 0.92 OD units | not inhibited | not inhibited | significant inhibition of heparanase expression | 85.9 pM | 1.88e+06 M⁻¹ s⁻¹ | 0.000105 s⁻¹
3 | B3 | 1.64 OD units | 1.84 OD units | 3.63 OD units | 0.61 OD units | 3.82 OD units | – | – | – | – | – | –
4 | B4 | 0.95 OD units | 0.61 OD units | 3.69 OD units | 0.14 OD units | 3.27 OD units | – | – | – | – | – | –
